Positions count from the first letter of the chain named. Names may count otherwise.
B1: ProS2-fused human PMS2 NTD (Homo sapiens; K91R) (protein)
chain: MERAESSSTEPAKAIKPIDRKSVHQICSGQVVLSLSTAVKELVENSLDAGATNIDLKLKDYGVDLIEVSDNGCGVEEENFEGLTLKHHTSRIQEFADLTQVETFGFRGEALSSLCALSDVTISTCHASAKVGTRLMFDHNGKIIQKTPYPRPRGTTVSVQQLFSTLPVRHKEFQRNIKKEYAKMVQVLHAYCIISAGIRVSCTNQLGQGKRQPVVCTGGSPSIKENIGSVFGQKQLQSLIPFVQLPPSDSVCEEYGLSCSDALHNLFYISGFISQCTHGVGRSSTDRQFFFINRRPCDPAKVCRLVNEVYHMYNRHQYPFVVLNISVDSECVDINVTPDKRQILLQEEKLLLAVLKTSLIGMFDS
B2: ProS2-fused human PMS2 NTD (Homo sapiens; K340E) (protein)
chain: B1 chain with R91K, K340E
B3: ProS2-fused human PMS2 NTD (Homo sapiens) (protein)
chain: B1 chain with R91K
B4: ProS2-fused human PMS2 NTD (Homo sapiens; K340A) (protein)
chain: B1 chain with R91K, K340A
B5: histidine-tagged human MLH1 NTD (Homo sapiens; K311E) (protein)
chain: MSFVAGVIRRLDETVVNRIAAGEVIQRPANAIKEMIENCLDAKSTSIQVIVKEGGLKLIQIQDNGTGIRKEDLDIVCERFTTSKLQSFEDLASISTYGFRGEALASISHVAHVTITTKTADGKCAYRASYSDGKLKAPPKPCAGNQGTQITVEDLFYNIATRRKALKNPSEEYGKILEVVGRYSVHNAGISFSVKKQGETVADVRTLPNASTVDNIRSIFGNAVSRELIEIGCEDKTLAFKMNGYISNANYSVKKCIFLLFINHRLVESTSLRKAIETVYAAYLPKNTHPFLYLSLEISPQNVDVNVHPTEHEVHFLHEESILERVQQHIESKLLG
B6: histidine-tagged human MLH1 NTD (Homo sapiens) (protein)
chain: B5 chain with E311K
B7: full-length aqMutL (Aquifex aeolicus VF5) (protein)
chain: MFVKLLPPEVRKVIAAGEVIESPVDVVKELVENSLDAKATKVEVEIVKGGKRLIRVKDNGTGIHPEDVEKVVLQGATSKIETEKDLMNISTYGFRGEALYSISSVSKFKLRSRFFQEKEGKEIEVEAGNILGTRRVGMPVGTEVEVRDLFFNLPVRRKFLKKEDTERRKVLELIKEYALTNPEVEFTLFSEGRETLKLKKSSLKERVEEVFQTKTEELYAEREGITLRAFVSRNQRQGKYYVFINKRPIQNKNLKEFLRKVFGYKTLVVLYAELPPFMVDFNVHPKKKEVNILKERKFLELVRELAGKEKPIVDIPLSQPVKTYKPTYEILGQMDETFILVKDSEYLYFVDQHLLEERINYEKLKDENLACRISVKAGQKLSEEKIRELIKTWRNLENPHVCPHGRPIYYKIPLREIYEKVGRNY
B8: full-length aqMutL (Aquifex aeolicus VF5; N282A) (protein)
chain: B7 chain with N282A
B9: full-length aqMutL (Aquifex aeolicus VF5; K79R) (protein)
chain: B7 chain with K79R
B10: full-length aqMutL (Aquifex aeolicus VF5; K28E) (protein)
chain: B7 chain with K28E
B11: full-length aqMutL (Aquifex aeolicus VF5; K287A) (protein)
chain: B7 chain with K287A
B12: aqGyrB NTD (Aquifex aeolicus VF5) (protein)
chain: MKKRQSQTPQEYTAEAIKAVSGLEHVRLRPAMYIGDIGERGLHHLIWEILDNAVDEAVAGYARNISVTIHRDNSVTVEDDGRGIPVDIHPETGKPAVEMVFTMLGAGGKFEKKVYTYSGGLHGVGASVVNALSEWLIVEVYRDGKIYRMAFKRGEVVEPLHVVGETKKRGTKVSFKPDPEIFETTEIKFDIVEKRVRELAYLNPEVKFELTDERLGKHLIYKFDRGIEELVKYLNEGKEPLFKDIIRIQGEKEGVIVDIAFQYVKDYKERIESFVNNIKTVEGGTHVTGFRSGLSKAVIRMAQGLKLAKELKKSFTGEDVREGLTAVVACKVPNPQFEGQTKTKLGNQNVKQIVESITYDFLTSYFEKKRDVLKAIVEKAIEAALAREAAKKAKELV

Key:
[1] = substrate: Nc1ncnc2c1ncn2[C@@H]1O[C@H](COP(=O)(O)OP(=O)(O)OP(=O)(O)O)[C@@H](O)[C@H]1O; experiment: phosphate release, BIOMOL Green; type: biochemical, Homo sapiens; details: 50 mM HEPES-KOH pH 7.5, 100 mM NaCl, 5 mM MgCl2, 37 °C
[2] = substrate: Nc1ncnc2c1ncn2[C@@H]1O[C@H](COP(=O)(O)OP(=O)(O)OP(=O)(O)O)[C@@H](O)[C@H]1O; experiment: phosphate release, BIOMOL Green; type: biochemical, Aquifex aeolicus; details: 50 mM HEPES-KOH pH 7.5, 100 mM NaCl, 5 mM MgCl2, 70 °C

Row | Protein | Km [1] [µM] | kcat [1] [s⁻¹] | Km [2] [µM] | kcat [2] [s⁻¹]
1 | B1 | 300 ± 42 | 0.000733 ± 2.83e-05 |  | 
2 | B2 | 80 ± 12 | 0.000483 ± 3e-05 |  | 
3 | B3 | 190 ± 39 | 0.00617 ± 0.0003 |  | 
4 | B4 | 160 ± 93 | 0.00105 ± 0.000135 |  | 
5 | B5 | 750 ± 130 | 0.000333 ± 5e-05 |  | 
6 | B6 | 790 ± 75 | 0.00267 ± 0.000108 |  | 
7 | B7 |  |  | 360 ± 190 | 0.025 ± 0.0025
8 | B8 |  |  | 560 ± 54 | 0.000483 ± 1.67e-05
9 | B9 |  |  | 610 ± 130 | 0.00283 ± 0.000233
10 | B10 |  |  | 900 ± 73 | 0.00733 ± 0.000367
11 | B11 |  |  | 370 ± 36 | 0.00767 ± 0.000383
12 | B12 |  |  | 250 ± 41 | 0.0367 ± 0.00217

Reference: doi:10.1101/2021.07.09.451751v1
